Data set [1] concerns the target trypsin-activated PDE6 isolated from bovine rod outer segment membranes (bovine) (UniProt P11541). Nature of the data set: inhibition of enzyme activity.
For data set [2], the target named is trypsin-activated PDE6 from mouse retina extracts (mouse (endogenous in retina)) (UniProt P27664). Nature of the data set: inhibition of enzyme activity.
The data set “mass photometry” deals with the molecule itself. Nature of the data set: mass photometry.

Data on 5 molecules can be found in publication PMC11725853 (Proceedings of the National Academy of Sciences of the …, 2024).

Regarding “full-length Pγc (isolated protein used in PDE6 activity assays) (from UniProt Q13956 1-83) (natural protein)”, the Ki in data set [1] came out at 0.0755 nM.

For “full-length Pγr (isolated protein used in PDE6 activity assays) (from UniProt P18545 1-87) (natural protein)”, the inhibition constant Ki in data set [1] was 0.0294 nM.

In data set [2], “synthetic peptide of the 25 C-terminal residues of Pγr, Pγr-63-87 (from UniProt P18545 63-87)” displayed an inhibition constant (Ki) of 2500 nM.

“synthetic peptide of the C-terminus of Pγc, Pγc-59-83 (from UniProt Q13956 59-83)” showed a Ki in data set [2] of 8200 nM.

B1: human cone cGMP-phosphodiesterase PDE6C catalytic subunit (residues 2-830), catalytic homodimer of holoPDE6C (enzyme, UniProt P51160 2-830, looked up)
chain: GEINQVAVEKYLEENPQFAKEYFDRKLRVEVLGEIFKNSQVPVQSSMSFSELTQVEESALCLELLWTVQEEGGTPEQGVHRALQRLAHLLQADRCSMFLCRSRNGIPEVASRLLDVTPTSKFEDNLVGPDKEVVFPLDIGIVGWAAHTKKTHNVPDVKKNSHFSDFMDKQTGYVTKNLLATPIVVGKEVLAVIMAVNKVNASEFSKQDEEVFSKYLNFVSIILRLHHTSYMYNIESRRSQILMWSANKVFEELTDVERQFHKALYTVRSYLNCERYSIGLLDMTKEKEFYDEWPIKLGEVEPYKGPKTPDGREVNFYKIIDYILHGKEEIKVIPTPPADHWTLISGLPTYVAENGFICNMMNAPADEYFTFQKGPVDETGWVIKNVLSLPIVNKKEDIVGVATFYNRKDGKPFDEHDEYITETLTQFLGWSLLNTDTYDKMNKLENRKDIAQEMLMNQTKATPEEIKSILKFQEKLNVDVIDDCEEKQLVAILKEDLPDPRSAELYEFRFSDFPLTEHGLIKCGIRLFFEINVVEKFKVPVEVLTRWMYTVRKGYRAVTYHNWRHGFNVGQTMFTLLMTGRLKKYYTDLEAFAMLAAAFCHDIDHRGTNNLYQMKSTSPLARLHGSSILERHHLEYSKTLLQDESLNIFQNLNKRQFETVIHLFEVAIIATDLALYFKKRTMFQKIVDACEQMQTEEEAIKYVTVDPTKKEIIMAMMMTACDLSAITKPWEVQSQVALMVANEFWEQGDLERTVLQQQPIPMMDRNKRDELPKLQVGFIDFVCTFVYKEFSRFHKEITPMLSGLQNNRVEWKSLADEYDAKMKVIEEEA
For the molecule B1, the “stoichiometry N” value in “mass photometry” came to 2.

By Ki is commonly meant the dissociation constant of the complex between target and ligand, obtained from inhibition or displacement. Low values mean tighter binding, high ones weaker binding. As a reminder, the stoichiometry N is a count of units in the complex or per binding partner.
